Experimental data as given in the nanobody polyreactivity screen of Harvey et al. (2022).

Assay: yeast display, Sf9 membrane polyspecificity reagent, FACS + sequencing; frameworks hold sequencing errors
Outline: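 A nanobody's polyreactivity label depends on the gate it was sorted from. Yeast display cells were stained with 10% biotinylated, detergent-solubilized Sf9 membrane reagent for 1 hour at 4 °C, enriched on streptavidin microbeads and sorted by FACS. The low and high (top ~1%) gates were set on anti-HA fluorescence for expression and streptavidin fluorescence for reagent binding.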

Sequence	polyreactivity (PSR sort gate)
QVQRVESGGGIVQAGGTLRLSCAASLRIKDNVMGRYIQAHGKERELVAAITRSAGRTYYADSVKGRFTISRDNAKYTVYLQKNSLKPEDTALYYCAAHAERYGYEYWGQGTQVTVSS	low polyreactivity
QVQRVESGGGLFQAGGRLRLSCAASGSISLKYAMGWYRQAPGKERELVATISRGGSTNYADSVKGRFTISRDNAKNTVYIQMNSLKPEDTAVYYCAANYGRPYGTYGYWGQGTQVTVSS	high polyreactivity
QVQRVESGGGLFQAGRSLRLSCAASGSTIRRYAMGWYRQAPGKERELVAAMSRGGNTNYADSVKGRFTISRDNATNTVYLQMNCLKPEDTAVYYCAAKLYGGWYRDFAACGMDYWGQGTQVTVCS	high polyreactivity
QVQRVESGGGLLQAGRSLRLSCAASGTIFYHYAMGWYRQAPGKERELVAAMTRSGGSTYYADSVKGRFTISRDNAKNTVYLQMNSLNPEDTAVYYCAKDPDSYNFLTSNWYDYWGQGTQVTVCS	low polyreactivity
QVQRVESGGGLVQAGASLRLSCAASGSTFLTNAMGWYIQAPGKERELVAAITWSGTSTYADSVKGRFTISRDNAKNTVYLQMNSLKPEDTAVYYCIADGWYYPTDDYWGQGTQVTVSS	low polyreactivity
QVQRVESGGGLVQAGGCLRLSSAASGFIFRYNDMGWYRQAPGKERQLVATITGSGTSTYYADSVKGRFTISRDNAKTTVYLQMNSLKPEDTAVYYCAAVTSYWYWYVGYDYWGQGTQVTVSS	high polyreactivity
QVQRVESGGGLVQAGGILRLSCAASGSTFKVNVIGWYRHAPRTERDLVSAINQSGGGKYYADSVKGRFTISRDNAKNTVYLQMNSLKPEDTAVYYCAAKIFVLRYVLSQEQRRYNYWGQGTQLTVSS	low polyreactivity
QVQRVESGGGLVQAGGRLRLSSSASGSIFPTNTMGLSRQSPGKERELVAAITGSGGSRYYADSVKGRFTISRDNAKNTVYLQMNSLKPEDTAVYYCAARYRVDGVKYGYWGQGTQVTVSS	high polyreactivity
QVQRVESGGGLVQAGGSLPLSCAATGRTVRQNAMGWYGQAPGKVSELVAAISSSGTNTHYAVSVKGRFTISRDNANNTVYIVMNRLKPEDTAVYYCAADGWGARRKQYHDNGFWGTGTQVTVSS	high polyreactivity
QVQRVESGGGLVQAGGSLRISCAASGLIFYRYAMGRYRQAPGKERELVAAISKRGTSTYYADSVKGRFTISRDNAKNTVYLQMNSLKPEDTAVYYCAADVQEEYDYWGLGTQVTVSS	high polyreactivity
QVQRVESGGGLVQAGGSLRLRCAASGFIFWLYAMGWYRQAPAKERELVAAISNGGSTNYADSVKGRFTISRDNAKNTVYLQMNSLKPEDTAVYYCAAKFPRRYYWYDYWGQGTQVTVSS	high polyreactivity
QVQRVESGGGLVQAGGSLRLSCAACGLTFRQYAMVWYRQAPGKERELVAAIRSRGGSTYYADSVKGRFTISRDNAKNTVYFQMNSLKPEDTAVYYCAAGGRGWWLYRYNFFSEMDYWGQGTQVTVSS	high polyreactivity
QVQRVESGGGLVQAGGSLRLSCAASGFIFEGNAMGWYRQAPGKERELVAAISWSGGRTFYADSVKGRFTISRDHAKNTVYLQMNSLKPEDTAVYYCAAQGRRYGYGDFYYWGQGTQVTVSS	high polyreactivity
QVQRVESGGGLVQAGGSLRLSCAASGFIFETYAMGWYRQAPGKERELVAAISWRTGRTYYADSVKGRFTISRDNAKNTVYLQMNSLKPEDTAVYYCNADYGGTSTLKDFDYWGQGTQVTVSS	low polyreactivity
QVQRVESGGGLVQAGGSLRLSCAASGFIFGRYAMGWYRQAPGKERELVAASTWGGDSTYYADSVKGRFTISRDNAKNTVYLQMNSLKPEDTAVYYCAAYPQRRFYWQYRYDYWGQGTQVTVSS	high polyreactivity
QVQRVESGGGLVQAGGSLRLSCAASGFIFIRNAMGWYRQAPGKERELVAAISSGGRTYYADSVKGRFTISRDNAKNTVYLQMNSLQPEDTAVYYCATRPHRPRGHSVGQYDYWGQGTQVTVSS	high polyreactivity
QVQRVESGGGLVQAGGSLRLSCAASGFTFDRYAMGWYRQAPGKERELVAAISRSGGSTHYADSVKGRFTISRDNAKNTVYLQMNSLKPEDTAVYYCAKVYAPITALYFPTDRGDYCGQGTQVTVSS	high polyreactivity
QVQRVESGGGLVQAGGSLRLSCAASGFTFRAYTMGWYRQAPGKDRELVAAITYSGGRRYYADSVKGRFTISRDNAKTTVYLQMNSLNPEDTAVYYCAKRGWALSEYYYWGQGTQVTVSS	high polyreactivity
QVQRVESGGGLVQAGGSLRLSCAASGFTFVEYAMGWYRQAPGKERELVAAISVSGGSTYYADSVKGRFTISRDNAKNTVYLQMNSLKPEDTAVYYCNATGYQVGSITIYDYWGQGSQVTVSS	low polyreactivity
QVQRVESGGGLVQAGGSLRLSCAASGFTLDYYTMGWYRQAPGKERELVAAISWIGTSTYYADSVKGRFTISRDNAKNTVYIQMNSLKPEDTAVYYCAAVGASVDDYYWGQGSQVTVSS	high polyreactivity

Sequence	polyreactivity (PSR sort gate)
QVQRVESGGGLVQAGGSLRLSCAASGITFDRYAMGWYRQAPGKETELVAAISSGGRTNYADSVKGRFTISRDNAKNTVYLQMNSLKPEDTEVYYCSKRRARSGQDYDYWGQGTQVTVSS	low polyreactivity
QVQRVESGGGLVQAGGSLRLSCAASGITFGIYVMGWYRQAPGKETELVATISRSDDNTYYADSVKGRFTISRDNAKNTVYLQMNSLKPEDTAVYYCAADGVISAWYSSRDDYWGQGTQVTVSS	low polyreactivity
QVQRVESGGGLVQAGGSLRLSCAASGITFWPYAMGWYRQAPGKERELVAAIRASVGRTYYADSVKGRFTISRDNAKNTVYLQMNSLKPEDTAVYYCNAYGRYGKFRVEYDYWGQGTQVTVSS	low polyreactivity
QVQRVESGGGLVQAGGSLRLSCAASGLIFRKYAMGWYRQEPGKERELVAAISLRGVSTYYADSVKGRFTISRDNAKNTVYLQMNRLKPEDTAVYYCAADVYYPLGYGLDYWGQGYQVTVSS	low polyreactivity
QVQRVESGGGLVQAGGSLRLSCAASGLILVPNTMGWYRQAPGKVRELVAAISYSGGGTYYADAVKGRFTISRDNAKNTVYLQMNSLKPEETAVYDCAAYVKRESAPYGYWGQGTQVTVSS	low polyreactivity
QVQRVESGGGLVQAGGSLRLSCAASGNTFKYNTMGWYRQAPGTERELVAAISSGGNTKYADSVKGRFTISRDNGKNTDYFQMNSLKPEDTAVNYCATTFPRKGRFRYDYWGQGTQVTVSS	high polyreactivity
QVQRVESGGGLVQAGGSLRLSCAASGNTFYGYTMGWYRQAPGKERELVAAISGRGGSTTYADSVKGRFTISRDNEKNTVYCQMNSLKPEDTAVYDCAANSVYIRTRFYYWGQGTQETVSS	high polyreactivity
QVQRVESGGGLVQAGGSLRLSCAASGRIFGLNAMGWYRQAPGKERELVAAIDRSGASTYYADSVKGRFTISRDNAKNTVYLQMNSLKPEDSAVYYCAARIRTSDRRYYLGQGTQVTVSS	high polyreactivity
QVQRVESGGGLVQAGGSLRLSCAASGRIFRYYAMGWYRQAPGKERELVAAISRSSGSTYYADSVKGRFTISRDNAKNTVYLQMNSLKPEDTAVYYCATAFYSYGRYPQSYYWGQGTQVTVSS	high polyreactivity
QVQRVESGGGLVQAGGSLRLSCAASGRIFVAYVMGWYRQAPGKERELVAAITRSGGRTYYADSVKGRFTISRDNAKNTVYLQMNSLKPEDTAVYYCATDSGWSTYDYWGQGTQVSVSS	high polyreactivity
QVQRVESGGGLVQAGGSLRLSCAASGRTFPPYAMGWYRQAPGKERELVASIRRGGSTHYADSVKGRFTISRDNAKNTVYLQMNSLKPEDTAVYYCNADVIFGYTHYNYWGQGTQVTVSS	high polyreactivity
QVQRVESGGGLVQAGGSLRLSCAASGRTFVFYDMGWYRQAPGKERELVAAITSSGGRTYYADSVKGRFTISRDNAKNTVYLQMYRVKPEDTAVYYCAAPYYPYKYDSWGQGTQVTVSS	low polyreactivity
QVQRVESGGGLVQAGGSLRLSCAASGSIFGVYTRGWYRQAPGKESELVAAITSAGSTYADSVKGRFTISRDNAKNTVYLQMNSLKPEDTAVYYCAAGFHKRVTPEILYDYWGQGTQVTVSS	low polyreactivity
QVQRVESGGGLVQAGGSLRLSCAASGSIFRFYAMGWYRQARGKERELVAAITSGGSTNYADSVKGRFTISRDNAKNTVFLQMKSLKPEDTAVYYFNAGLFYKPQYGYWGQGTQVTVSS	high polyreactivity
QVQRVESGGGLVQAGGSLRLSCAASGSIFSYYARGLYRQAPGNESELVAVINSGSTNYAASVKGRFTISRDNAKNTVYIHMNSLKPEDTAVYYCAADSLLYLLEQYTTAPYDYWAQGTQVTVSS	low polyreactivity
QVQRVESGGGLVQAGGSLRLSCAASGSIVQQYAMGWYRQAPGKERELVAAISYSGGTTYYADSVKGRFTISRDNAKTTVYLQMNSLKPEDTAVYYCAAYYPSGSYDYYWGQGTQVTVSS	low polyreactivity
QVQRVESGGGLVQAGGSLRLSCAASGSTFSIYAMGLYRQEPGKERELVAAISFSDDSTYYADSVKGRFTISRDNAKNTVYLQMNSLNPEDTEVYYCAAEGYWGEPFDYDGALEYWGQGTQVTVSS	high polyreactivity
QVQRVESGGGLVQAGGSLRLSCADSGGTFGSYAKGCSSQAPGQDRELVDAIDYSGADTYYADSVKGRFTISRDNAKNTVYLQMNSLKREDTAVFSCNADPLPYDGFYDYDYWGQGTQVTVSS	low polyreactivity
QVQRVESGGGLVQAGGSLRLSSAGSGSIFNIYTMGWYRQAPGKERELVAAISYGGGSTYADSVKGRLTISRDNAKNTVYLQMNSLKPEDTAVYYCNAKRTYHWRWYQYDYWGQGTQVTVSS	high polyreactivity
QVQRVESGGGLVQAGGSLRLSSASSGFTFRSYAMGWYRQEPGKERELVAVIASSGGSTYYADSVKGRFTFSRDNAKNTVYLQMNSLKPEDTAVYYCNRRPATRAYLYDYWGQGTQVTVSW	high polyreactivity
